Biological target: microtubules assembled from bovine brain phosphocellulose-tubulin with taxol (bovine, UniProt Q6B856 1-445)
Test: co-sedimentation

microtubules assembled from bovine brain phosphocellulose-tubulin with taxol, sequence (Q6B856 whole entry, looked up): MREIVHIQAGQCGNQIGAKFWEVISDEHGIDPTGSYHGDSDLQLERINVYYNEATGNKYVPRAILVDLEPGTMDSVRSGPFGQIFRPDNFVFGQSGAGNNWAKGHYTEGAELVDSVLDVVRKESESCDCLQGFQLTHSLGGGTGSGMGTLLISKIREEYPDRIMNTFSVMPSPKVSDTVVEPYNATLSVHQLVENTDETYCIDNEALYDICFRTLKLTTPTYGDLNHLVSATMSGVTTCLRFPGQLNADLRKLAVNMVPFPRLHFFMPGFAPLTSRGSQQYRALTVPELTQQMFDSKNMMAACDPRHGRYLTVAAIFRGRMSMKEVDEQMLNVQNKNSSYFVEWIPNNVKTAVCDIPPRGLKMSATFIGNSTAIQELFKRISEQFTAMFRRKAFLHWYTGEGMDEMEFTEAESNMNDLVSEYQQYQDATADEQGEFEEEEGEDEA

B1: GMAP-210 (Golgi microtubule-associated protein 210), endogenous (natural protein, human (endogenous in HeLa), UniProt Q15643 1-1979, looked up)
chain: MSSWLGGLGSGLGQSLGQVGGSLASLTGQISNFTKDMLMEGTEEVEAELPDSRTKEIEAIHAILRSENERLKKLCTDLEEKHEASEIQIKQQSTSYRNQLQQKEVEISHLKARQIALQDQLLKLQSAAQSVPSGAGVPATTASSSFAYGISHHPSAFHDDDMDFGDIISSQQEINRLSNEVSRLESEVGHWRHIAQTSKAQGTDNSDQSEICKLQNIIKELKQNRSQEIDDHQHEMSVLQNAHQQKLTEISRRHREELSDYEERIEELENLLQQGGSGVIETDLSKIYEMQKTIQVLQIEKVESTKKMEQLEDKIKDINKKLSSAENDRDILRREQEQLNVEKRQIMEECENLKLECSKLQPSAVKQSDTMTEKERILAQSASVEEVFRLQQALSDAENEIMRLSSLNQDNSLAEDNLKLKMRIEVLEKEKSLLSQEKEELQMSLLKLNNEYEVIKSTATRDISLDSELHDLRLNLEAKEQELNQSISEKETLIAEIEELDRQNQEATKHMILIKDQLSKQQNEGDSIISKLKQDLNDEKKRVHQLEDDKMDITKELDVQKEKLIQSEVALNDLHLTKQKLEDKVENLVDQLNKSQESNVSIQKENLELKEHIRQNEEELSRIRNELMQSLNQDSNSNFKDTLLKEREAEVRNLKQNLSELEQLNENLKKVAFDVKMENEKLVLACEDVRHQLEECLAGNNQLSLEKNTIVETLKMEKGEIEAELCWAKKRLLEEANKYEKTIEELSNARNLNTSALQLEHEHLIKLNQKKDMEIAELKKNIEQMDTDHKETKDVLSSSLEEQKQLTQLINKKEIFIEKLKERSSKLQEELDKYSQALRKNEILRQTIEEKDRSLGSMKEENNHLQEELERLREEQSRTAPVADPKTLDSVTELASEVSQLNTIKEHLEEEIKHHQKIIEDQNQSKMQLLQSLQEQKKEMDEFRYQHEQMNATHTQLFLEKDEEIKSLQKTIEQIKTQLHEERQDIQTDNSDIFQETKVQSLNIENGSEKHDLSKAETERLVKGIKERELEIKLLNEKNISLTKQIDQLSKDEVGKLTQIIQQKDLEIQALHARISSTSHTQDVVYLQQQLQAYAMEREKVFAVLNEKTRENSHLKTEYHKMMDIVAAKEAALIKLQDENKKLSTRFESSGQDMFRETIQNLSRIIREKDIEIDALSQKCQTLLAVLQTSSTGNEAGGVNSNQFEELLQERDKLKQQVKKMEEWKQQVMTTVQNMQHESAQLQEELHQLQAQVLVDSDNNSKLQVDYTGLIQSYEQNETKLKNFGQELAQVQHSIGQLCNTKDLLLGKLDIISPQLSSASLLTPQSAECLRASKSEVLSESSELLQQELEELRKSLQEKDATIRTLQENNHRLSDSIAATSELERKEHEQTDSEIKQLKEKQDVLQKLLKEKDLLIKAKSDQLLSSNENFTNKVNENELLRQAVTNLKERILILEMDIGKLKGENEKIVETYRGKETEYQALQETNMKFSMMLREKEFECHSMKEKALAFEQLLKEKEQGKTGELNQLLNAVKSMQEKTVVFQQERDQVMLALKQKQMENTALQNEVQRLRDKEFRSNQELERLRNHLLESEDSYTREALAAEDREAKLRKKVTVLEEKLVSSSNAMENASHQASVQVESLQEQLNVVSKQRDETALQLSVSQEQVKQYALSLANLQMVLEHFQQEEKAMYSAELEKQKQLIAEWKKNAENLEGKVISLQECLDEANAALDSASRLTEQLDVKEEQIEELKRQNELRQEMLDDVQKKLMSLANSSEGKVDKVLMRNLFIGHFHTPKNQRHEVLRLMGSILGVRREEMEQLFHDDQGGVTRWMTGWLGGGSKSVPNTPLRPNQQSVVNSSFSELFVKFLETESHPSIPPPKLSVHDMKPLDSPGRRKRDTNAPESFKDTAESRSGRRTDVNPFLAPRSAAVPLINPAGLGPGGPGHLLLKPISDVLPTFTPLPALPDNSAGVVLKDLLKQ
fold increase of bound protein, sheared against unsheared microtubules: 1.8 fold

From article PMC2148210 (The Journal of Cell Biology, 1999)
